From patent US20240042051A1 (Novartis, published 2024)

T1: hCD48EC:mouse-Ig construct #2248 (ENYKQ modified into GSSKQ) (human, UniProt P09326 27-220, limits assumed)
T1 construct: extracellular domain; not shown: mouse IgG1 part of the fusion
T1 sequence (looked up): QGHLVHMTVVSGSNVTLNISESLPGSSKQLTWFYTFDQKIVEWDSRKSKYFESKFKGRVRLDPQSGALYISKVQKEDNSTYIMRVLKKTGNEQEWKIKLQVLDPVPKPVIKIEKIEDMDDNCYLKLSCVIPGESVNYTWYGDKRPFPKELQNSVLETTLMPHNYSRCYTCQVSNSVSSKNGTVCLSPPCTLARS

T2: Human CD48 (recombinant, humanCD48 aa29-220) (human, UniProt P09326 29-220)
T2 construct: SPR analyte in solution; also called analyte human CD48; not shown: C-terminal tag (hFc1P, APP6-Avi or His)
T2 sequence: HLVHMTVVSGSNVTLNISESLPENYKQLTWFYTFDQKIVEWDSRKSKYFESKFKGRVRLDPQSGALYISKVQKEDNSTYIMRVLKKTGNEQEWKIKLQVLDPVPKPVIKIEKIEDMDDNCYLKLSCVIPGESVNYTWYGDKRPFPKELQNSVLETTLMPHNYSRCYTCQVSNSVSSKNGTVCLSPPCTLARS


Key:
[1] = biological target: T1, hCD48EC:mouse-Ig construct #2248 (ENYKQ …); test: ELISA, HEK293T culture supernatant (1:10) with the CD48-mouse Ig construct, antibody at 25, 250 and 500 ng/mL, detection goat anti-mouse IgG (H+L) HRP, Mean OD450-570
Excerpt: Non-mutated CD48-mouse IgG fusion peptide served as positive control and non-transfected cell supernatant as negative control.

[2] = biological target: T2, Human CD48 (recombinant, humanCD48 …); test: SPR Biacore T200, antibody captured on protein A chip, CD48 as analyte, 25 °C, 1:1 model
Procedure: The anti-CD48 antibodies were diluted at 5 μg/ml and injected on flow cells 2 and 4 for 20 sec at 10 μl/min. Capture level for all antibodies was 370-440 RU. Flow cells 1 and 3 were left blank (no antibody captured) and used as a reference surface. Human and cynomolgus CD48 served as analytes in solution. […] After each cycle of antibody capture and analyte injection, the chip surface was regenerated with 10 mM Glycine-HCl pH 1.5 (Cytiva, ordering #BR100354) for 2×30 s at a flow rate of 50 μl/min. Three runs with duplicate measurements and buffer blank injections were performed. Measurements were executed at 25° C. and data collected at a rate of 10 Hz.
[…] The raw data were double referenced, i.e. the response of the measuring flow cells was corrected for the response of the reference flow cells (no antibody captured), and in a second step the response of a blank injection (buffer) was subtracted. Finally, the sensorgrams were fitted by applying a 1:1 interaction model with a constant fit of RI (0) and a global fit for Rₘₐₓ. Kinetic rate constants (kₐ, kd) and equilibrium dissociation constants (KD) were calculated. Data were processed separately for each run. The generated values were used to calculate average values and standard deviations of the respective equilibrium dissociation constants and the kinetic rate constants.

binding result [1]	Kd [2] [nM]	koff [2] [s⁻¹]	kon [2] [M⁻¹ s⁻¹]	Binder
no binding (tested: 500 ng/mL)				humanized CD48A (antibody, V domains shown, Murine CD48A is clone MEM-102; also called control antibody CD48A) VH: QVQLVQSGSELKKPGASVKVSCKASGYTFTDFGMNWVRQAPGQGLEWMGWINTFTGEPSYGNVFKGRFVFSLDTSVSTAYLQISSLKAEDTAVYYCARRHGNGNVFDSWGQGTLVTVSS VL: EIVLTQSPDFQSVTPKEKVTITCRASQSIGSNIHWYQQKPDQSPKLLIKYTSESISGVPSRFSGSGSGTDFTLTINSLEAEDAATYYCQQSNSWPLTFGGGTKVEIKR
	0.5	0.00013	250000	NY938 (antibody, human IgG1, kappa, V domains shown, also called anti-CD48 antibody NY938; NY938 IgG) VH: QVQLVQSGAEVKKPGASVKVSCKASGYTFTEYTMHWVRQAPGQGLEWMGGINPDTGDTSYNQKFTGRATLTVDKSTSTAYMELSSLRSEDTAVYYCARAQFWTTPRFAYWGQGTLVTVSS VL: DIQMTQSPSSLSASVGDRVTITCKASQDVGTAVAWYQQKPGKVPKLLIYWASTRHTGVPSRFSGSGSGTDFTLTISSLQPEDVATYYCQQYSTYPITFGQGTKLEIKR
	10	0.00074	72000	NY920 (antibody, human IgG1, kappa, V domains shown, also called anti-CD48 antibody NY920; candidate antibody NY920) VH: EVQLLESGGGLVQPGGSLRLSCAASGFTFSSFAMSWVRQAPGKGLEWVSAISGFGGSTYYADSVKGRFTISRDNSKNTLYLQMNSLRAEDTAVYYCARQFWEDQPFYFDYWGQGTLVTVSS VL: not shown
